Experimental data reported in PMC3316669.

Experiments:
[1] = biological target: MBP-ssTorA signal peptide (Escherichia coli) (UniProt P33225); assay: ITC; conditions: cited from earlier work
[2] = biological target: TorA signal peptide 10-26 (Escherichia coli) (UniProt P33225); assay: ITC; conditions: cited from earlier work
[3] = biological target: ssTorA-SBP signal peptide (Escherichia coli) (UniProt P33225); assay: SPR; conditions: cited from earlier work
[4] = biological target: TorD with N-terminal His-tag (E. coli) (UniProt P36662); assay: SPR; quantitative, equilibrium response against pre-protein concentration; His-tagged REMP held on a Ni-NTA chip to 500 RU, 20 µl/min, 25°C, reference surface subtracted; Scatchard plot and Langmuir 1:1 fit; 10 mM HEPES, 150 mM NaCl, 50 µM EDTA, 0.005% P20, pH 7.4

Sequence of TorD (P36662 whole entry): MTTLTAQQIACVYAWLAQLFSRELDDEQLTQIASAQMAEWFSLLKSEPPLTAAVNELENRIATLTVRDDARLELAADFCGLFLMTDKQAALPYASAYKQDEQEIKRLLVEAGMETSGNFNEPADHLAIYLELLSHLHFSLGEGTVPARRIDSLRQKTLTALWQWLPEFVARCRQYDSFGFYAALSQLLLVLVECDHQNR

Substance | Kd [4] [nM] | also measured
TorD (from UniProt P36662) | – | Kd [1]: 59 nM; Kd [2]: 1700 nM; Kd [3]: 3800 nM
ssTorA(KK)-GFP (domain or fragment) | 540 | –
ssTorA(KKK)-GFP (domain or fragment) | 4900 | –

Further lines, with some results ahead:

Kd [4] [nM] | Substance | also measured
2900 | ssTorA(KR)-GFP (domain or fragment) | –
3600 | ssTorA(RK)-GFP (domain or fragment) | –
330 | ssTorA-GFP (signal sequence of TorA fused to GFP) (domain or fragment) | stoichiometry N [4]: 1
